In patent publication EP4703385A1 (Fortvita Biologics Inc., dated 2026):

B1: Hz33B9C5 (antibody, human IgG1, kappa, L234A L235A, V domains shown)
VH: QVQLVESGGGLVKPGGSLRLSCAASGFTFSDYYMYWIRQAPGKGLEWVSTISGGGTYTYSPDSVKGRFTISRDNAKNSLYLQMNSLRAEDTAVYYCARGEPGLAYWGQGTLVTVSS
VL: DIVMTQSPDSLAVSLGERATINCKASQSVDYYGDSYMHWYQQKPGQPPKLLIYASSNLESGVPDRFSGSGSGTDFTLTISSLQAEDVAVYYCQQSHEDPWTFGGGTKVEIKR
notes: Expressed in ExpiCHO cells; also called Antibody Hz33B9C5; humanized anti-CD40L antibody Hz33B9C5
B2: Hz47E2 (antibody, human IgG1, kappa, L234A L235A, V domains shown)
VH: EVQLVESGGGLVKPGGSLRLSCAASGFTFSDYAMSWVRQAPGKGLEWVSEISTVHTYTYYSDAVAGRFTISRDNAKNSLYLQMNSLRAEDTAVYYCARDRVLDYWGQGTLVTVSS
VL: DIVMTQSPDSLAVSLGERATINCRASESVEYYDTSLMQWYQQKPGQPPKLLIYAASNLESGVPDRFSGSGSGTDFTLTISSLQAEDVAVYYCQQTKKLPWTFGQGTKVEIKR
notes: Expressed in ExpiCHO cells; also called Antibody Hz47E2; humanized anti-CD40L antibody Hz47E2

Target: T1, Human CD40 Ligand/TNFSF5 Protein, His, Flag Tag, active trimer (MALS verified) (human, UniProt P29965 108-261, limits assumed)
T1 construct: Bought protein, described as an active trimer; The order of the CD40L part and the tags is not known; also called CD40L protein; CD40L (Acro CDL-H52Db); not shown: His tag and Flag tag
T1 sequence (looked up): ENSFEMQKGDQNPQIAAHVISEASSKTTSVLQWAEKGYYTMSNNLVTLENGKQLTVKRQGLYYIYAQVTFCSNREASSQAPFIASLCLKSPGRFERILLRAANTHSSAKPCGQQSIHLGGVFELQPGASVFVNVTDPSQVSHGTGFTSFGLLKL
Assay: bio-layer interferometry (ForteBio); antibody 100 nM, human CD40L 100 nM, 30 C

Binder | Kd
B1 | 0.297 nM
B2 | 0.315 nM
